Source: US20240067747A1 (SHANGHAI HUAOTA BIOPHARMACEUTICAL, published 2024)

T1: Trypsin inhibitor type 1-S from Glycine max (Sigma, T-2327) (Glycine max, UniProt P01070 25-205)
T1 construct: Non-target molecule, amine-coupled to a CM5 chip
T1 sequence (looked up): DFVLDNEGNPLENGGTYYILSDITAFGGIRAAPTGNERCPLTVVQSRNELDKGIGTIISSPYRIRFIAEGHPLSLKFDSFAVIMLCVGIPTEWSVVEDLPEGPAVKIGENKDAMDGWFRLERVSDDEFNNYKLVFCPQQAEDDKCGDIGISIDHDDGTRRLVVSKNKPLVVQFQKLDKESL

T2: Cynomolgus CD73 protein (Novoprotein, item No. CI21) (cynomolgus, UniProt A0A2K5V5U7 27-547)
T2 construct: Bought protein
T2 sequence: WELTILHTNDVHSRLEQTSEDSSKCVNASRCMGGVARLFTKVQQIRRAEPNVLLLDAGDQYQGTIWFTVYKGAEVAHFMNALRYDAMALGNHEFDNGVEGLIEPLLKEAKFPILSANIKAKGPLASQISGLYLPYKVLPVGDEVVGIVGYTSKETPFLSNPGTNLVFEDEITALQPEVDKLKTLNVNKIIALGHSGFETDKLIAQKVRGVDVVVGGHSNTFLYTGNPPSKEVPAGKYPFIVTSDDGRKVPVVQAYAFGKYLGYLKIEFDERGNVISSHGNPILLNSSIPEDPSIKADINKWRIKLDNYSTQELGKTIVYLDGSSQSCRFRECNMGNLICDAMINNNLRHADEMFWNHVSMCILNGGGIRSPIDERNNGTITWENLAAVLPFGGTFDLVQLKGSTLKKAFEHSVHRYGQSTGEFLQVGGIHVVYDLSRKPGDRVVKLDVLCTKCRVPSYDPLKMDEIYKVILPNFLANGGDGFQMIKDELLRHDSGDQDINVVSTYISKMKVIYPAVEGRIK

T3: human CD73 on the cell surface of CHOK1-huCD73-3F4 cells (Huabo Biopharm) (human, UniProt P21589 27-549)
T3 sequence (looked up): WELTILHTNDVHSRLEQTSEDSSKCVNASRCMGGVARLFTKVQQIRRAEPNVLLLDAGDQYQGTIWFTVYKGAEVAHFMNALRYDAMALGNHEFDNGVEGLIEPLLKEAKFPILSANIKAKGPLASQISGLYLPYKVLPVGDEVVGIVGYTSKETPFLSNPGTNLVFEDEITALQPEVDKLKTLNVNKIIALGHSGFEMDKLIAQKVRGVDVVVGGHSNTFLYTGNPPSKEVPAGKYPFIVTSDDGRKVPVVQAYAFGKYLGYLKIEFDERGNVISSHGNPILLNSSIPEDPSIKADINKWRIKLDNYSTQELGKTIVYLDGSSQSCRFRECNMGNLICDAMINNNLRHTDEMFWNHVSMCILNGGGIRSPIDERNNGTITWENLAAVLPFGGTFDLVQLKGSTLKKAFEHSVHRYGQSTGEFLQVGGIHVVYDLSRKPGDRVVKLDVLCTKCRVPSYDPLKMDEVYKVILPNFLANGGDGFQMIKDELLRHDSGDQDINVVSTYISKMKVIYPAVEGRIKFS


What was measured:
[1] = biological target: T1, Trypsin inhibitor type 1-S from Glycine …; assay: SPR, Biacore 8K, trypsin inhibitor immobilized on CM5 chip
Method: The non-specific adsorption effect of antigen-binding proteins and non-target molecules were determined by using the SPR method.
The series sensor chip CM5 (GE, #BR-1005-30) was equilibrated at room temperature for 20-30 min and then loaded into the Biacore 8K (GE) instrument. Lysozyme solution (Sigma, #L3790) from egg and trypsin inhibitor type 1-S (Sigma, #T-2327) from Glycine max were immobilized onto the CM5 chip using an amino coupling kit (GE, #BR-1000-50). The injection buffer was HBS-EP (1×) (GE, #BR-1006-69) and four equilibration cycles were set up. The polyclonal rabbit anti-lysozyme (ABcam, Ab391), anti-trypsin inhibitor antibodies (LifeSpan Biosciences, #LS-C76609), chimeric antibodies and humanized antibodies were diluted with equilibration buffer to 1000 nM, and the flow rate was set at 5 μL/min and injection channels 1, 2 and 3, Flow Cell 1 and 2 were selected. The association time was 10 min and the dissociation time was 10 min.

[2] = biological target: T2, Cynomolgus CD73 protein (Novoprotein, …); assay: SPR, Biacore T200, antibody captured on protein A chip, cynomolgus CD73 as analyte, 1:1 model
Method: In the tests, the assay buffer HBS-EP+ (pH 7.4) and the protein A chip (manufacturer: GE, item No.: 29-1275-56) were used.
The temperatures of a sample chamber and a flow path were set at 25° C., and the protein A chip respectively captured antigen-binding proteins as ligands and immobilized at about 100 RU. […] After association for 120 s at a flow rate of 30 μL/min, dissociation was carried out for 600 s. Regeneration was then carried out for 60 s with 10 mM Glycine (pH 1.5) at a flow rate of 50 μL/min to implement multi-cycle kinetic detection. A 1:1 binding model was selected for fitting analysis in a Fit local mode to acquire the association rate constant (ka), dissociation rate constant (kd) and dissociation equilibrium rate constant (KD).

[3] = biological target: T3, human CD73 on the cell surface of …; assay: cell-based or functional assay
[4] = biological target: T3, human CD73 on the cell surface of …; assay: flow cytometry on CHOK1-huCD73-3F4 cells, PE-goat anti-human-Fc
Method: All antigen-binding proteins were diluted to 30 μg/ml with 1% BSA in PBS solution (1% BSA/PBS) and then 3-fold diluted for 11 gradients. The diluted antigen-binding proteins were added to a 96-well U-shaped plate at 20 μL per well; and a negative control (with 1% BSA/PBS added only) was set up at the same time. The suspension of cells (CHOK1-huCD73-3F4, Huabo Biopharm) expressing human CD73 during the logarithmic growth phase were centrifuged (1000 rpm×5 min) to discard the culture medium; and the cells were resuspended with 1% BSA/PBS until the density of viable cells was 1×10⁶/mL, and were added, at 20 μL (2×10⁴ cells) per well, to the 96-well U-shaped plate with the […] antigen-binding protein to react for 30 min at room temperature. After reaction, the 96-well U-shaped plate was resuspended with 1% BSA/PBS, centrifuged (300 g×3 min) to discard the supernatant, and washed once in such a way. PE-goat anti-human-Fc (Jackson ImmunoResearch, #109-115098) diluted at 1:200 was added to react for 15 min in the dark at room temperature. After reaction, the 96-well U-shaped plate was resuspended with 1% BSA/PBS, centrifuged (300 g×3 min) to discard the supernatant, washed three times in such a way, and finally resuspended with 100 μL of 1% BSA/PBS for each wall; and the fluorescence intensity of a PE channel was detected with a flow cytometer (BD, #Cantoll).

Row | Binder | Kd [2] [nM] | koff [2] [s⁻¹] | kon [2] [M⁻¹ s⁻¹] | EC50 of inhibition of the enzyme activity of CD73 on cell membrane (AMP/ATP, CellTiter-Glo) [3] [µg/mL] | EC50 [4] [µg/mL] | binding result [1]
1 | 900725 (humanized anti-CD73 antigen-binding protein) (antibody, V domains shown) VH: QVQLVQSGAEVKKPGASVKLSCKASGYTFTSYWIHWVRQAPGQGLEWIGMIHPNSGSTYYNEKFKGRATLTVDKSTSTAYMELSSLRSEDTAVYYCARYYGSDYEWYFDVWGQGTTVTVSS VL: DIQMTQSPSSMSASVGDRVTITCKASQNVRTAVVWYQQKPGKAPKALIYLASNRHTGVPDRFSGSGSGTDFTLTISSLQPEDFATYFCLQHWNYPYTFGQGTKLEIK | 0.368 | 0.000156 | 425000 |  |  | no binding (tested: 1000 nM antibody; 20 RU)
2 | 900727 (humanized anti-CD73 antigen-binding protein) (antibody, V domains shown) VH: QVQLVQSGAEVKKPGASVKVSCKASGYTFTSYWIHWVRQAPGQGLEWIGMIHPNSGSTYYAQKFQGRVTITVDKSTSTAYMELSSLRSEDTAVYYCARYYGSDYEWYFDVWGQGTTVTVSS VL: DIQMTQSPSSMSASVGDRVTITCKASQNVRTAVVWYQQKPGKAPKALIYLASNRHTGVPDRFSGSGSGTDFTLTISSLQPEDFATYFCLQHWNYPYTFGQGTKLEIK | 0.798 | 0.00074 | 927000 |  |  | no binding (tested: 1000 nM antibody; 20 RU)

Continued by falling Kd [2], values first:

Row | Kd [2] [nM] | koff [2] [s⁻¹] | kon [2] [M⁻¹ s⁻¹] | EC50 of inhibition of the enzyme activity of CD73 on cell membrane (AMP/ATP, CellTiter-Glo) [3] [µg/mL] | EC50 [4] [µg/mL] | Binder | binding result [1]
3 | 2 | 0.0032 | 1.6e+06 |  |  | 900726 (humanized anti-CD73 antigen-binding protein) (antibody, V domains shown) VH: QVQLVQSGAEVKKPGASVKLSCKASGYTFTSYWIHWVRQAPGQGLEWIGMIHPNSGSTYYNEKFKGRATLTVDKSTSTAYMELSSLRSEDTAVYYCARYYGSDYEWYFDVWGQGTTVTVSS VL: DIQMTQSPSSLSASVGDRVTITCKASQNVRTAVVWYQQKPGKAPKALIYLASNRHTGVPDRFSGSGSGTDFTLTISSLQPEDFATYYCLQHWNYPYTFGQGTKLEIK | no binding (tested: 1000 nM antibody; 20 RU)
4 | 0.709 | 0.000606 | 855000 | 0.0749 | 0.021 | 900567 (human-mouse chimeric anti-CD73 antigen-binding protein expressed from 124A9 variable regions) (antibody, V domains shown) VH: QVQLQQPGAELVKPGASVKLSCKASGYTFTSYWIHWVKQRPGQGLDWIGMIHPNSGSTYYNEKFKSKATLTVDKSSSTAYMQLSSLTSEDSAVYYCARYYGSDYEWYFDVWGTGTTVTVSS VL: DIVMTQSQKFMSTSVGDRVSITCKASQNVRTAVVWYQQNPGQSPKALIYLASNRHTGVPDRFTGSGSGTDFTLTISNVHSEDLADYFCLQHWNYPYTFGGGTKLEIK | no binding (tested: 1000 nM antibody; 20 RU)
5 | 0.561 | 0.000381 | 678000 |  |  | 900728 (humanized anti-CD73 antigen-binding protein) (antibody, V domains shown) VH: QVQLVQSGAEVKKPGASVKVSCKASGYTFTSYWIHWVRQAPGQGLEWIGMIHPNSGSTYYNEKFQGRVTMTVDKSTSTAYMELSSLRSEDTAVYYCARYYGSDYEWYFDVWGQGTTVTVSS VL: DIQMTQSPSSLSASVGDRVTITCKASQNVRTAVVWYQQKPGKAPKALIYLASNRHTGVPDRFSGSGSGTDFTLTISSLQPEDFATYYCLQHWNYPYTFGQGTKLEIK | no binding (tested: 1000 nM antibody; 20 RU)
